Measurements as given in paper PMC5785977, “A dual role for the N-terminal domain of the IL-3 receptor in cell signalling” (Nature Communications, 2018).
Read-outs that look alike come from different tables or passages of the source.

Key:
[1] = target: GMRα:βc (Homo sapiens) (UniProt P15509); conditions: cited from earlier work
[2] = target: IL3Rα ECD (Homo sapiens) (UniProt P26951); conditions: cited from earlier work
[3] = target: IL3Rα:βc (Homo sapiens) (UniProt P26951); conditions: cited from earlier work
[4] = target: IL3Rα ECD (Homo sapiens) (UniProt P26951); experiment: SPR; conditions: cited from earlier work
[5] = target: IL3Rα ECD (Homo sapiens) (UniProt P26951); experiment: SPR; conditions: cited from earlier work; remark: listed apart in the source
[6] = target: IL3Rα ECD (Homo sapiens) (UniProt P26951); experiment: SPR; conditions: cited from earlier work; remark: listed apart in the source
[7] = target: IL3Rα ECD (Homo sapiens) (UniProt P26951); experiment: SPR; conditions: cited from earlier work; remark: listed apart in the source
[8] = target: IL3Rα ECD (Homo sapiens) (UniProt P26951); experiment: SPR; conditions: cited from earlier work; remark: listed apart in the source
[9] = target: IL5Rα:βc (Homo sapiens) (UniProt Q01344); conditions: cited from earlier work
[10] = target: IL3Rα + βc co-expressed on COS cells (human) (UniProt P26951)
[11] = target: IL3Rα C76A,C195A + βc co-expressed on COS cells (human) (UniProt P26951)
[12] = target: IL3Rα D197L + βc co-expressed on COS cells (human) (UniProt P26951)
[13] = target: IL3Rα SP2 + βc co-expressed on COS cells (human) (UniProt P32927)
[14] = target: IL3Rα + βc co-expressed on COS cells (human) (UniProt P26951); experiment: radioligand binding; saturation binding of radioiodinated (125I) cytokine to transfected COS cells; dissociation constants by EBDA and LIGAND
[15] = target: IL3Rα C76A,C195A + βc co-expressed on COS cells (human) (UniProt P26951); experiment: as above
[16] = target: IL3Rα D197L + βc co-expressed on COS cells (human) (UniProt P26951); experiment: as above
[17] = target: IL3Rα SP2 + βc co-expressed on COS cells (human) (UniProt P32927); experiment: as above
[18] = target: full-length IL3Rα expressed alone on COS cells (human) (UniProt P26951); experiment: as above
[19] = target: IL-3 receptor on TF-1Hi cells (overexpressed IL3Rα) (human | human (endogenous in TF-1)) (UniProt P26951); experiment: radioligand binding; saturation binding of radioiodinated (125I) cytokine to TF-1Hi cells (overexpressed IL3Rα); dissociation constants by EBDA and LIGAND
[20] = target: T1, endogenous IL-3 receptor on TF-1 cells (human (endogenous in TF-1), UniProt P26951 19-378; P32927 17-897); experiment: radioligand binding; saturation binding of radioiodinated (125I) cytokine to TF-1 cells (endogenous receptor); dissociation constants by EBDA and LIGAND; conditions: one partner purified
T1 construct: IL-3 receptor α-subunit, endogenous in the human TF-1 erythroleukaemic cell line; beta common (βc) receptor subunit, endogenous in the human TF-1 cell line; the discussion notes that TF-1 cells also express transcripts of the IL3Rα SP2 splice variant; also called TF-1 Endogenous; source: endogenous, on TF-1 cells

[21] = target: T2, IL3Rα + βc co-expressed on CTLL-2 cells (human, UniProt P26951 19-378; P32927 17-897, N144 and R145 to K144); experiment: radioligand binding; saturation binding of radioiodinated (125I) cytokine to the CTLL-2 cell line expressing IL3Rα and βc; dissociation constants by EBDA and LIGAND; conditions: one partner purified
T2 construct: IL-3 receptor α-subunit, human, full-length; the cDNA of the site 1 functional studies in CTLL-2 encodes a splice variant that changes N144 and R145 to K144; beta common (βc) receptor subunit, human, wild-type; also called CTLL-2 IL3Rα + βc; source: CTLL-2 cells, retrovirally transduced, on cells
T2 sequence (looked up) 1: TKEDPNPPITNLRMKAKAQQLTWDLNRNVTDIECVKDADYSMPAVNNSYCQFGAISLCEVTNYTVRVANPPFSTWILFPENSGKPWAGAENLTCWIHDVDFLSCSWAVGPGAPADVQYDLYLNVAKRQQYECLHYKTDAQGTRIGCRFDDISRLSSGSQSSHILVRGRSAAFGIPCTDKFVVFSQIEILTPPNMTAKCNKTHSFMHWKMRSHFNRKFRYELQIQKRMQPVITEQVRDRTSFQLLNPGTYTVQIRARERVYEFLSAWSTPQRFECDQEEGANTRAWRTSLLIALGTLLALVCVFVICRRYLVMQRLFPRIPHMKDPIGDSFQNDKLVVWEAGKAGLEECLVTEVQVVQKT
T2 sequence (looked up) 2: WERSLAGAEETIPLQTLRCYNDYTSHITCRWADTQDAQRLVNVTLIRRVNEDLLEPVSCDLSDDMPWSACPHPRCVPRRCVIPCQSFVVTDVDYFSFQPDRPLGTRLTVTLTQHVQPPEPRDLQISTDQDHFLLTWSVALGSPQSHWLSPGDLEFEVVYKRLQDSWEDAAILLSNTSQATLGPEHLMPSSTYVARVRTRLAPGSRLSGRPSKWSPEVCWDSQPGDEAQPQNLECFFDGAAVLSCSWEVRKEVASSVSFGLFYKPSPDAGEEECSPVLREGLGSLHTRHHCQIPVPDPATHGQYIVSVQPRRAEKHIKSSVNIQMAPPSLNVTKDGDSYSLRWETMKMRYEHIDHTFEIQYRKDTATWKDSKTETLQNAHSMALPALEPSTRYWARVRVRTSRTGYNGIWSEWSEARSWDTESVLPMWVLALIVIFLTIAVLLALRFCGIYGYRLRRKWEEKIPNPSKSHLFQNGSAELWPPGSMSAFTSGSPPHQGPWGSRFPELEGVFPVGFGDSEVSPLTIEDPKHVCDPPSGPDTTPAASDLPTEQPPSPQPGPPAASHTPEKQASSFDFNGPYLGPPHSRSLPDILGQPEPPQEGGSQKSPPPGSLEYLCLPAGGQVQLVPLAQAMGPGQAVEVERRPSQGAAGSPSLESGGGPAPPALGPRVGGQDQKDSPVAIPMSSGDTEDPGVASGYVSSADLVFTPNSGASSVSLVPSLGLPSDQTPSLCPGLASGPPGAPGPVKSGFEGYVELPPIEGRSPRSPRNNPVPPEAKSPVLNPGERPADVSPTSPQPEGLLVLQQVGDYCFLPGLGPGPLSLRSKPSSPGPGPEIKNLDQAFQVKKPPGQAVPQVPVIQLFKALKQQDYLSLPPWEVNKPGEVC

GMRα:βc (Homo sapiens), sequence (P15509 23-320): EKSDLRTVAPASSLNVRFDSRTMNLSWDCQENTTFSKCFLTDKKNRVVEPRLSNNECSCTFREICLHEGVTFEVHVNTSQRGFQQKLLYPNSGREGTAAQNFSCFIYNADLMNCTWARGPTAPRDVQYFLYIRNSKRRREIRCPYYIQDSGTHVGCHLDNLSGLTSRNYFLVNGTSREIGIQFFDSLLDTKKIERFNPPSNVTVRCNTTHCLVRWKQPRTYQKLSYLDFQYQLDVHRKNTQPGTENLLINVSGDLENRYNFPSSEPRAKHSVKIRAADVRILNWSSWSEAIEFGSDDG
IL5Rα:βc (Homo sapiens), sequence (Q01344 21-342): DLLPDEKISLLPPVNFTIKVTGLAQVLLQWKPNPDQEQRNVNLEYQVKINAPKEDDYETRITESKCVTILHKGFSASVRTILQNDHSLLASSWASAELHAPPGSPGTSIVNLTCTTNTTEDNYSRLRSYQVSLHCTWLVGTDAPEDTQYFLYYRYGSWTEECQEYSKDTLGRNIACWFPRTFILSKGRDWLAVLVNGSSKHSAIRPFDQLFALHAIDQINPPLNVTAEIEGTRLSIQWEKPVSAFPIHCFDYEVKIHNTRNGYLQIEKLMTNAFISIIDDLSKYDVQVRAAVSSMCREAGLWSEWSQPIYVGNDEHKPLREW

GM-CSF (from UniProt P04141)
Kd [1]: 0.2 nM

IL-3 (from UniProt P08700)
Kd [2]: 510 nM
Kd [3]: 0.2 nM
Kd [4]: > 5000 nM
Kd [5]: > 5000 nM
Kd [6]: 220 nM
Kd [7]: > 5000 nM
Kd [8]: > 5000 nM

IL-5 (from UniProt P05113)
Kd [9]: 0.2 nM

B1: wild-type human IL-3, residues W13 to Q125 of the mature peptide with a W13Y mutation and a GAMGS N-terminal tail (ligand)
chain: GAMGSYVNCSNMIDEIITHLKQPPLPLLDFNNLNGEDQDILMENNLRRPNLEAFNRAVKSLQNASAIESILKNLLPCLPLATAAPTRHPIHIKDGDWNEFRRKLTFYLKTLENAQAQQ
modifications: radioiodinated with 125I in the cell-surface binding assays (residue not stated)
notes: N-terminal tail arising from the expression plasmid, left after TEV cleavage; interleukin-3, human, residues W13 to Q125 of the mature peptide; numbers count on: the mature protein; also called wild-type IL-3; interleukin-3; source: E. coli BL21 CodonPlus (DE3)-RIPL, purified (HisTrap, TEV digest, SEC, reversed-phase); not shown: Nus, N-terminal, cleaved; 6xHis, N-terminal, cleaved
proliferation of FDH cells co-expressing βc and wild-type IL3Rα, ED50 of the IL-3 dose–response [10]: 0.29 ng/mL
proliferation of FDH cells co-expressing βc and IL3Rα C76A,C195A, ED50 of the IL-3 dose–response [11]: 12.2 ng/mL
proliferation of FDH cells co-expressing βc and IL3Rα D197L, ED50 of the IL-3 dose–response [12]: 1.71 ng/mL
proliferation of FDH cells co-expressing βc and IL3Rα SP2, ED50 of the IL-3 dose–response [13]: 6.94 ng/mL
Kd [14]: 0.48 nM
Kd [15]: 1.1 nM
Kd [16]: 4.37 nM
Kd [17]: 7.61 nM
Kd [18]: 141 nM
Kd [19]: 0.14 nM
Kd [20]: 2.06 nM
Kd [21]: 0.34 nM

B2: human IL-3 K116W, residues W13 to Q125 of the mature peptide with a W13Y mutation and a GAMGS N-terminal tail (ligand)
chain: GAMGSYVNCSNMIDEIITHLKQPPLPLLDFNNLNGEDQDILMENNLRRPNLEAFNRAVKSLQNASAIESILKNLLPCLPLATAAPTRHPIHIKDGDWNEFRRKLTFYLWTLENAQAQQ
modifications: radioiodinated with 125I in the cell-surface binding assays (residue not stated)
notes: N-terminal tail arising from the expression plasmid, left after TEV cleavage; interleukin-3, human, residues W13 to Q125 of the mature peptide; numbers count on: the mature protein; also called IL-3 K116W superkine; IL-3 superkine; source: E. coli BL21 CodonPlus (DE3)-RIPL, purified (HisTrap, TEV digest, SEC, reversed-phase); not shown: Nus, N-terminal, cleaved; 6xHis, N-terminal, cleaved
proliferation of FDH cells co-expressing βc and wild-type IL3Rα, ED50 of the IL-3 K116W dose–response [10]: 0.37 ng/mL
proliferation of FDH cells co-expressing βc and IL3Rα C76A,C195A, ED50 of the IL-3 K116W dose–response [11]: 2.51 ng/mL
proliferation of FDH cells co-expressing βc and IL3Rα D197L, ED50 of the IL-3 K116W dose–response [12]: 0.6 ng/mL
proliferation of FDH cells co-expressing βc and IL3Rα SP2, ED50 of the IL-3 K116W dose–response [13]: 2.19 ng/mL
Kd [14]: 0.43 nM
Kd [15]: 0.94 nM
Kd [16]: 1.6 nM
Kd [17]: 2.98 nM
Kd [18]: 17.8 nM
Kd [19]: 0.065 nM
Kd [20]: 0.35 nM
Kd [21]: 0.14 nM
